# Data taken from patent publication US20200268855.
# Biological target: T1, ALDH1A2-His6 (UniProt O94788)
# T1 sequence: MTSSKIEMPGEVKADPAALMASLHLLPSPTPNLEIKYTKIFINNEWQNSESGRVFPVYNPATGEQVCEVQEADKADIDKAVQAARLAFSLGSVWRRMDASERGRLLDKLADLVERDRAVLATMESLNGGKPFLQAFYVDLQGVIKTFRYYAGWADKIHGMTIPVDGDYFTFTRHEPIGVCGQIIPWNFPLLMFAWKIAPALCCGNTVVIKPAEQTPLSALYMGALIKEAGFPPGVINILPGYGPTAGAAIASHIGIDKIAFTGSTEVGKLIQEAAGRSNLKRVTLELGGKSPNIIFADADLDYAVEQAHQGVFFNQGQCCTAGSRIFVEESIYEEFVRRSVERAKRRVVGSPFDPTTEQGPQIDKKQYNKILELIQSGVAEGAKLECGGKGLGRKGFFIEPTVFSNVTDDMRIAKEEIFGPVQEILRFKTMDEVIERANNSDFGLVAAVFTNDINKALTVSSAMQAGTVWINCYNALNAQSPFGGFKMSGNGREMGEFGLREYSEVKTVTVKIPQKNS
substance,measurement,value
human UBE3A protein,ubiquitination of ALDH1A2 in the reconstituted bacterial ubiquitination system (immunoblot),the ALDH1A2 protein was highly ubiquitinated in the presence of UBE3A protein
